# In the DeepSol protein solubility set:
# Assay: soluble on expression in E. coli; label from the status in PepcDB or PDB records
row,Sequence,soluble on expression in E. coli
1,ITLKVAIYPYVPDPARFQAAVLDQWQRQEPGVKLEFTDWDSYSADPPDDLDVFVLDSIFLSHFVDAGYLLPFGSQDIDQAEDVLPFALQGAKRNGEVYGLPQILCTNLLFYRKGDLKIGQVDNIYELYKKIGTSHSEQIPPPQNKGLLINMAGGTTKASMYLEALIDVTGQYTEYDLLPPLDPLNDKVIRGLRLLINMAGEKPSQYVPEDGDAYVRASWFAQGSGRAFIGYSESMMRMGDYAEQVRFKPISSSAGQDIPLFYSDVVSVNSKTAHPELAKKLANVMASADTVEQALRPQADGQYPQYLLPARHQVYEALMQDYPIYSELAQIVNKPSNRVFRLGPEVRTWLKDAKQVLPEALGLTDVSSLAS,soluble
2,MNWAKFRETGSPEDTDMSSTPISSDTTAVSKVIDPNYVLMVADFFKAISPDESCNDFTSFDSFSVLFQNNTRALSIARGRVSCSVTVTPGISNFFKGLHGGAVASIAERVAMACVKTVVSEDKHLFIGELSMSYLSSAPISSELLVEGTVVRTGRNLSVVTVEFKIKETMKVTYLSRATFYHSPISKL,not soluble
3,MGSDKIHHHHHHMMAKLVVCIIDGMADPPPPAGGVTPLAAAHTPHCDTLARHSVAGLCHVIQPEAVPGSEAGLSALLCCEAAASIARGPVEALAQGDPVAPHETVWRLNLVSLGPRGNYYNPAPLLDAATETAARKMLDRALGTQGYSLLGGKGFRHLCAGTEPPVLRDGPQDVCGMTPDTGQADLNSYCPRLARAMTEANVLFRRSRMDLAVWPWGAGTMPDLPGFAETTGQTGALAGGVPLARGLALALGMTAPSIAGATGGIDTDLGAKTRAAIALAAGHDVVYLHVEAPDLHAHALDRVAKRRAIERIDAEVVGPLHMALPDATLLITCDHATDCATGRHMAIPVPFILHKPDGPQDGIATFSEAASARTGIRIDSAATLVRLALAD,not soluble
4,MGSDKIHHHHHHMNLPLQGIKVVELGQLIAGPFAAKILAEFGAEVIKVEPPLTGDPLRKWRLLHNGTSVWWAVQSRNKQSVTLDLRQPQAQEMVRRLIRDADVLVENFRPGTLEGWGLSWEDLHALNPKLIMLRVSGYGQTGPYRDRPGFGVIGEAMGGLRHLSGEVGRTPVRVGVSIGDSLAALHGVIGILLALRHREQNAGEGQQIDVALYESVFNMMESLIPEYSVFNTVREPAGSSLPGIAPTNAYRCNDGKYALIAGNGDSIYRRLMEKIGRPDLANDPQLEHNDGRVRHVARIDAAISTWTAERSLDDVLAALTDARIPAGKIYDAADIASDPHYQARDMLLQSALDDGTPVTVPGIVPKLQDTPGQIRSPAPTLGQHTDAVLQAHGIDAATREEWRRLGII,not soluble
5,MGSDKIHHHHHHMSKFINPFTDYGFKLIFGREVSKDLLIEFLNDLLEGERVITDLTFLNNEQLPDYPEGRGIIYDVYCTTDTGEKIIVEMQNRMQSNFKERSIFYLSRAIVNQGRTGHDWKFEIKAVYGVFLMNFIMDKNIKLRTDVILADKETGELFSEKFRQIFIALPLFKKSEEECETNFERWIYILNNMETLKRLPFKARKAVFEKLEEIADVASMSPKERELYDNSVKVYRDYLVTMDAAEKEGIKKGMKEGMKEGLKKGLEEGLEEGLKKGREEALNIFQTAIDMKKQGIDNQLIAEKTGLPLSLIESLK,not soluble
6,MIIYTTPTALILEEQGERVEFDRRNGKVLEKPEESLEILDQDVVLCGNVEFLIGKISFDEQHFLFFVVDSSVVACYRGTSAESSHSIRRIERVIAINVKSDGSVIKSQITPGSGTKLKQGTEKIMKFFAEKVTKAEPRPALLDDVLKLFNDSKDFYFCRSRDVTISSQKYFEKREAHTSEDSFFWNKRMVGNLGEAKISDKFTCPIMQGYVATSQLEITDQINAYLTITIISRRSTRRAGARYLRRGIDEASNVANFVETELILNIFEHELSFVQCRGSIPVFWSQRGFKYRPPLIINRSVEETHGVFTEHFKRLKAHYDTPLVAVSLVDQRGRELPLAQRFLEHCVKADDNDVTFFSFDLHQHCRGLNFQKLQTLISSMEETLKTIGFCWVDKTGEVVQSQKGVVRTNCIDCLDRTNLVQGQISLFVVLQQAQRLGIFGPLCEPPEVLVQTMQTMWADNGDVISTQYAGTAALKGDVTRNGERKLMGVMKDGYNSASRYYLTHTKDAQRQKAINIVTGQTEADENAEEEENEKEEEENISRMVTETIQFLVPTQQTVIAGWGLINAFQSSDEIDTVVILTRSNLYIVTYEIDGEKMTDVQIVALEDINTIQTGTSGNNRQCARLETLEGVFIWRPSTVRLFNNTAIRLKSLEEANEYISSVAEQIQVGRNMLTGAEGSVVPVAKITIPQMSVHRKSMAAMGALFGKIKRVGKPSSLSKSASTISTAQLPETDGNESDASQKSDHLMTKILKMSQFKSDSPQPEPFSSLLPAISECQTKISLL,not soluble
7,MSLNILIVGGNGGIGLAMVKEALVRFPQAQIHATYRRTKSDYEHSALIWHQVDVTDETQVKNLSQAVNSIDWVINCVGMLHTPNKGPEKNLRMVEPDFFLQNIAVNTLPSMLLAKYFTPLLKCSGAPKFAVVSAKVGSISDNHLGGWYSYRASKAALNMFLKTMSIEWQRTLKNGVVLALHPGTTDTALSEPFQANVPEGKLFTPERVASDLMGQIVKAAPQDSGAFLTYDGEREGHHHHHH,soluble
8,MYWERGLHMYKASAVVPTGYVRVGNTAPLVGEDTQRYASFWGDGYDVYRQLRWQQIPEKQRKAFKKAAKSKKTVMFAGREYGISKQNLSDVWDDFEDAMELKAFPCLSSLFLTKWHKNLYDSGLTKTSTALPRLSSKRTIL,not soluble
9,MASGAKKLRNVNEVLSAKKPVSILLMGTDTGALGRTFAGRTDSMMVVTINPKTNKTTITSIPRDTAVNIPGYTSYGVSKINAAYAYGKSKTAITTVQKMLNIPIDFYAIINMGGMEKIIDEVGGVTLKPTLSFSYGGYTFKKGVKTHMNGKKALAYSRMRDDDPLGDYGRQTRQRKVIMALLNKSNSISSLLNEDFISSLSKQTQTDLTFNDLTALATNYRKATQYIKTTHLQGTSETIESQSMEVASKSELQRVTNYIRKALGLSHKTTGTIAQLEHHHHHH,soluble
10,MSLFHDVRFPVSLSFGARGGPERRTEIVTLANGAEERNTPWAHSRRRFDAGMGLRSLDDLETVIAFFEARAGQMHAFRWKDWSDFKSCRPSASPAPTDQLLGMGDETTATFQLVKHYGTGGDTYARPITRPVAGTVQVAVGGSPVTEGVEWSVDTATGMVTFTHPPDVGGEVTAGFEFDVPVRFDTDRIETSLASFNAGEVPDLPVVEVRPEGHHHHHH,soluble
11,VKRGLKPIVGLNQHIQQISPEQMGIRLDPDSLPIELRELANKHNAMLDRLQTGFRRLSEFSSDIAHELKTPLTNITTQNQVILGACRTSEEYQDAIASTLEELNRITKTINDLLYIAKAENKLIHRHDEVFAVQEEIDRLVAYFEILAEDAEVRIVSSGDGQLYM,not soluble
12,EKRVRRTRSLVEVLNVDPETGDLGINEIFNWYPSEDGFLKVGDSHIMQEIMHVRGWDSGQLRGEMENRRKILTYMYEKNMRSYIQVSLVVQAYQSYPKMVMEAIENNILQGMIQDMVA,not soluble
13,MTHIYEPRLSRIAIDKLRPTQIAVGFREVELKRKEWRETRKKDGDDFLGNHIVPVVAGPKDRAYLIDHHHLVLALSKEGVEHVLTSEVAKFSHLGKDEFWSVMDHRNLIYPFDAQGLRRQSGDIPKNIHDLEDDPFRSLAGALRMAGGYAKVIIPFSEFGWADFLRRRIDRDLLSDSFDDALAEAMKLAKSREARHLPGWCGVEEAAALEHHHHHH,soluble
14,MEITWEKPKSSSHHRNPSFSSTLLDQIYRSIDDSSPPPPLESIKKKKHHHQQRNASLHEDREISPIYHRRSIAADFERSRRKTDFLRHSNSSSSDSSGFSSSESDSFHGRSKSSASPPSSSRQQPKPIRTSSVDHSSAVQKPKELGGFLRTKSKALKIYSDLKKVKQPISPGGRLATFLNSLFTNAATNPKKHKKTTTVAVVEEPHSSSTCSSASSFSRSCLSKTPSSSGKSKRSVRFCPVNVILDEDSSFTMPYAYNNERLYDNNEAKRVEEHRRVIQAAKDLLRTYHNKNKVTTTNINNVEEDDEDDAASCASSDLFELENLSAIGIERYREELPVYETTRLDNMNRVIATGLIV,soluble
15,DIELTQSPATLSVTPGNSVSISCRASQSLVNEDGNTYLFWYQQKSHESPRLLIKYASQSISGIPSRFSGSGSGTDFTLSINSVETEDLAVYFCQQITDWPFTFGGGTKLEIKRADAAPTVSIFPPSSEQLTSGGASVVCFLNNFYPKDINVKWKIDGSERQNGVLNSWTDQDSKDSTYSMSSTLTLTKDEYERHNSYTCEATHKTSTSPIVKSFNRNEC,soluble
16,IEYETHFFNEVTYLVDYLKVKALMMIPKNKKDIKRIVIYLRGGKGQVGRVRAARLMQFANEYTLVIGPYYRGNNGSEGRDEFYRGDLNDVTHLIRLLNQNYPSAFIHMVGFSRGGLQGLLTFNDLPVDSYMIWGGVSDIHLMYEERVDLRGMLRRMVGHPKKDAKAYKSRDAMQFIKKDSPPILIIHGGKDIQVGIHQAYDLEKKLKSKGIYYQTYYQLDEGHVPRPPAMRDVIRYIHQWMNNVENKN,not soluble
17,AELLLGVNIDHIATLRNARGTAYPDPVQAAFIAEQAGADGITVHLREDRRHITDRDVRILRQTLDTRMNLEMAVTEEMLAIAVETKPHFCCLVPEKRQEVTTEGGLDVAGQRDKMRDACKRLADAGIQVSLFIDADEEQIKAAAEVGAPFIEIHTGCYADAKTDAEQAQELARIAKAATFAASLGLKVNAGHGLTYHNVKAIAAIPEMHELNIGHAIIGRAVMTGLKDAVAEMKRLMLEARG,soluble
18,MGSDKIHHHHHHMNEQFERLMVRVESLMARIESVLPQPLSAPDWTASVAYRYRKRGSGHGSLEPVRHLGAMRLTDLKEIDGQKDRIRRNTEQFVSGKPANNVLLTGSRGTGKSSLIKACLNEYSARGLRLIEVDKADLTDLPDIVDVVSGLPEKFIVFCDDLSFEEGEPGYKALKSILDGSIAAATPNVLIYATSNRRHLLPEYMMENLTYTHTEDGEVHPGEVVEEKISLSERFGLWVSFYPFSQDEYLTIVAQWLSSFGVNAEAISAARPASLVWALERGSRSGRVAYQFARDYAGQHAGTVQ,not soluble
19,MGSDKIHHHHHHMSFSNEDRDVFIIKTDRMIDRGALMSRYSRASDPDIRSVFHREFEGNQKRSEDFYRRIFLEYGDESIAELVTAQVGIQNVSNVISKVIEEIRIGLSYLEKSTRYVAYDRKVDGHYLFMQAEKIGLSGEAAREYTDLCNRLFDLYSSTLPRIEEEISRQWPIESFDFNIDGNPRNYKELDENGRKLAQKSYRSSVRSRALDDARFILPASTLTNMGVSGNGRSFIHLIQKLMEYGVPESERLAHDLYEELKGEFPQIIDDALSQHGQDIINYKRSLASLFPYTDGGRFEKVRLIKYSNEREEMQKVLALLMYPFAEDASGIISRIKAMELSEASAILERIRDLRKNRRMKVGRPFEAVNYVFEVTTNYGAFRDLQRHRFLSIVRKPLTVSYGFDVPPIIAKMPDLSEEYAEAMKDAERVYRIIKERYGAWIAQYAVPFAYRYPVVFTTNLAEATYFIELRSTPQAHFDLRDIAIRMYNEIKSVHPSLAGIIKFVDTGDYPLGRLSAEVRKNVKAGGI,not soluble
20,MGSDKIHHHHHHMALFESYDRRIDHINAVLNEYGINGIEDAKAICDAKGIDPYTMCKETQPICFENACWAYVVGAAIAIKKGCTNAAEAAEAIGIGLQAFCIAGSVADDRKVGIGHGNLAARLLREETKCFAFLAGHESFAAAEGAIKIAEMANKVRKEPLRVILNGLGKDAAKIISRINGFTYVQTQFDYMTGEVNVIEEKAYSNGLRAKVKCYGADDVREGVAIMRKEGVDVSITGNSTNPTRFQHPVAGTYKKECMENGHPYFSVASGGGTGRTLHPDNMAAGPASYGMTDTMGRMHGDAQFAGSSSVPAHVEMMGFLGMGNNPMVGATVAVAVAIEEAMKK,not soluble
